# Measurements from PMC11045787, “Disordered clock protein interactions and charge blocks turn an hourglass into a persistent circadian oscillator” (Nature Communications, 2024).
# Where no end group is shown, it is not given here.
# T1: FRQ-interacting RNA Helicase (FRH), a.a. 100-1106, with 6x His-tag (N. crassa, UniProt Q1K502 100-1106)
# T1 construct: The preparation was only about 30% FRH; the other proteins were left in on purpose; also called FRHΔ100; E. coli expressed FRH; source: E. coli BL21 (DE3), Ni-NTA eluate, de-salted and buffer-exchanged to PBS (~30% FRH by Coomassie gel); not shown: His6, N-terminal, kept
# T1 sequence (looked up): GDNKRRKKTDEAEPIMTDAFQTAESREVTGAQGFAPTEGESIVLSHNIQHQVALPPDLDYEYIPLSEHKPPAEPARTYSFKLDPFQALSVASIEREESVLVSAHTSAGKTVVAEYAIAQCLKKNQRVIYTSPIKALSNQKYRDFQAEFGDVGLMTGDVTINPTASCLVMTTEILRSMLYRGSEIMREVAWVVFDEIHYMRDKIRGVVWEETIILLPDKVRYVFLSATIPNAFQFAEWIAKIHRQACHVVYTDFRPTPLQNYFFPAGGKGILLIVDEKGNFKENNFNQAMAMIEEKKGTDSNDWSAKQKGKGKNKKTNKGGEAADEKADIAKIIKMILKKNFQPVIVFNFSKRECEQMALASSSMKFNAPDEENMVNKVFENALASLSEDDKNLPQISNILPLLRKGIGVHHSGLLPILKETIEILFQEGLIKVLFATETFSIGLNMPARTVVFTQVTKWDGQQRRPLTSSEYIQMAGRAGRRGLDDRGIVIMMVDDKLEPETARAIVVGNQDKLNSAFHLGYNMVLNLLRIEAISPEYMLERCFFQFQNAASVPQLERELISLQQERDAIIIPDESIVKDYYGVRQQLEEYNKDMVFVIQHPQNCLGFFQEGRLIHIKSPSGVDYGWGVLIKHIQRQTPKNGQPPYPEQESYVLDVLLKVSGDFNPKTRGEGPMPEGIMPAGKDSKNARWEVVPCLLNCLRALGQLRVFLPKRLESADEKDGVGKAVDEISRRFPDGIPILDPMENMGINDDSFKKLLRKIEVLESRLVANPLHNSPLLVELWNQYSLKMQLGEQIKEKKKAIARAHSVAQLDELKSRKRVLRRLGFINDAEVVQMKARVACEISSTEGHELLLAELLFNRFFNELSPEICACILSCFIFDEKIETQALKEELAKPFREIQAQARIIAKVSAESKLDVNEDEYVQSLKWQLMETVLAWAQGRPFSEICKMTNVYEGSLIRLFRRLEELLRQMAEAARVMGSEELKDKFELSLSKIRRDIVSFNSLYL
# B1: FRQ peptide MTDKEKKKLVVRRLE (near the FCD-1 region) (peptide)
# peptide: Ac-MTDKEKKKLVVRRLE
# notes: Made from C- to N-terminus on cellulose; printed as a peptide-cellulose stock; source: synthetic peptide (Fmoc, on cellulose disks, spotted on nitrocellulose-coated slides)
# Biological target: T1, FRQ-interacting RNA Helicase (FRH), …
# Test: peptide or protein array; LOCATE Library II: rationally designed FRQ peptides (parents, scrambles, truncations, substitutions) spotted on slides; ~100 nM FRH in solution, room temperature, PBS pH 7.0; read with anti-His and chemiluminescence; FRH preparation ~30% pure
# Details: both partners purified
binder,measurement,value
B1,binding result,binds
